Data: US7696168 (TUFTS MEDICAL CENTER, dated 2010)
Substitutions are numbered along the chain they refer to. The star is where a group is joined. Palmitoyl = CCCCCCCCCCCCCCCC(=O)*

How the values were obtained:
Experiment in all cases: cell-based or functional assay
murine PAR4 = biological target: T1, murine PAR4 (mouse, UniProt O88634 60-396)
T1 sequence (looked up): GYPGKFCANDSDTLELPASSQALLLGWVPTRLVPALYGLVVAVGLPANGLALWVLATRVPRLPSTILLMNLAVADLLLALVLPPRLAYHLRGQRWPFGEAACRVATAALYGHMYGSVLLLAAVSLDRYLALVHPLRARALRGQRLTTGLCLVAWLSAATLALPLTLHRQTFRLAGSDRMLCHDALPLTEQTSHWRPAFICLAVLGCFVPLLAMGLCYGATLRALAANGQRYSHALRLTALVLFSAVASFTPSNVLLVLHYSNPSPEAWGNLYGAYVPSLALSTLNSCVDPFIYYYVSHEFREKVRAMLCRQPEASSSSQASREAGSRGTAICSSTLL

PAR1 S309P mutant = biological target: T2, PAR1 S309P mutant (human, UniProt P25116 42-425)
T2 sequence (looked up): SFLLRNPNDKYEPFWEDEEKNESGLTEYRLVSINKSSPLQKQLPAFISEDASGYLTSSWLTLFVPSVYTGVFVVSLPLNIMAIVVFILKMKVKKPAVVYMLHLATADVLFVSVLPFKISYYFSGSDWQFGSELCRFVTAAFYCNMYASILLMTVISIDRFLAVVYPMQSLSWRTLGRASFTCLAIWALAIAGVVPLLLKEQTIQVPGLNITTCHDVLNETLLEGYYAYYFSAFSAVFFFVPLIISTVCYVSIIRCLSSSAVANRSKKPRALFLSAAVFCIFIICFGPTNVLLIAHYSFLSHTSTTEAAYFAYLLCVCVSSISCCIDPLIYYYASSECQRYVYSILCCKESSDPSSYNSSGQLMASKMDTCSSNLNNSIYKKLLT

MC4 receptor (MC4R) = MC4 receptor (MC4R) (human, UniProt P32245 1-332)
Sequence of MC4 receptor (MC4R) (P32245 whole entry): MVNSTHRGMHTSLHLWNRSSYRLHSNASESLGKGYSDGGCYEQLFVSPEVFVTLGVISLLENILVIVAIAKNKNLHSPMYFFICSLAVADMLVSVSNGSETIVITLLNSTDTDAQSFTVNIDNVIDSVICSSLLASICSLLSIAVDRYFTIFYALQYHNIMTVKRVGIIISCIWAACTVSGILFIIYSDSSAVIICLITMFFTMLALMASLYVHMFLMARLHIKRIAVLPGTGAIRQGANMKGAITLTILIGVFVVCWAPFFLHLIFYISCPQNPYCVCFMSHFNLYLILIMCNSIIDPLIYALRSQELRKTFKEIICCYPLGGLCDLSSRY

human PAR1 = biological target: T3, human PAR1 (human, UniProt P25116 42-425)
T3 sequence (looked up): T2 sequence (looked up) with P268S

[1] = biological target: rat somatostatin receptor (SSTR2) (rat, UniProt P30680 1-369)
Sequence of rat somatostatin receptor (SSTR2) (P30680 whole entry): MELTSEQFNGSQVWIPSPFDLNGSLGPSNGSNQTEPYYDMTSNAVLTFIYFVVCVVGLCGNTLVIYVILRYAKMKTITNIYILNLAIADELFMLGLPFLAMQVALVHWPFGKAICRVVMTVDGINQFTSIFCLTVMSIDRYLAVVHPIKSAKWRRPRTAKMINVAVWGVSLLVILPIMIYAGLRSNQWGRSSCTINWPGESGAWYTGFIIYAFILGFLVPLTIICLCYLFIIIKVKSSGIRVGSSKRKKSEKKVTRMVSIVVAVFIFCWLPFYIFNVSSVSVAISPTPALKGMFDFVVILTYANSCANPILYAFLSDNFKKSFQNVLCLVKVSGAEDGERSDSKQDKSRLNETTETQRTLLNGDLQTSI

[2] = biological target: T4, human cholecystokinin A receptor (CCKA) (human, UniProt P32238 1-428)
T4 sequence (looked up): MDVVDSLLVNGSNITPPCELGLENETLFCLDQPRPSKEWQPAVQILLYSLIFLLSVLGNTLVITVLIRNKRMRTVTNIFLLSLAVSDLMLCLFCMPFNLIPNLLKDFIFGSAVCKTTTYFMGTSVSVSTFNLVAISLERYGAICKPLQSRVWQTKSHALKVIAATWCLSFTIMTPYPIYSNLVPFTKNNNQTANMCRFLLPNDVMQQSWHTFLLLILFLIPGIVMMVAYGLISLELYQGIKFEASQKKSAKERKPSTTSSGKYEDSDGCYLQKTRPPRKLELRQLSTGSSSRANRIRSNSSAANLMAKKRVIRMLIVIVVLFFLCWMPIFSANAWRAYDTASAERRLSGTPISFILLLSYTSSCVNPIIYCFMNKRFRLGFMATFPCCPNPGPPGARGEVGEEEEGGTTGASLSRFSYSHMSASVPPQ

[3] = biological target: T5, human cholecystokinin B receptor (CCKB) (human, UniProt P32239 1-447)
T5 sequence (looked up): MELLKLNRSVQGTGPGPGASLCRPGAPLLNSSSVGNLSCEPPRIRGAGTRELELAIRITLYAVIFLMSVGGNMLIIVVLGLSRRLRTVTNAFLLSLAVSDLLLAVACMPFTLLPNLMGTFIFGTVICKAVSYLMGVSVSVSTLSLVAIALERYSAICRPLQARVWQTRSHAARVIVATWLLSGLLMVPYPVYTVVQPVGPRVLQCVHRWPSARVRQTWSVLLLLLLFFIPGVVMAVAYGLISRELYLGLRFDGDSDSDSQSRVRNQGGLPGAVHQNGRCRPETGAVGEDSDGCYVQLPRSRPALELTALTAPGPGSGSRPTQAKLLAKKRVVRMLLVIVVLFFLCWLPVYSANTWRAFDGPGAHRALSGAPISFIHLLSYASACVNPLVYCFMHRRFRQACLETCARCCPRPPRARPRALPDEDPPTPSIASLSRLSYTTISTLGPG

## thrombin (enzyme)
Murine PAR4
  EC50, aggregation of murine platelets by thrombin: 0.0006 µM
PAR1 S309P mutant
  loss of potency against wild type PAR1 (InsP): 17 fold

B1: MC4pal-14 (Pal-TGAIRQGANMKGAI) (peptide)
peptide: Palmitoyl-TGAIRQGANMKGAI-NH2
SMILES: CCCCCCCCCCCCCCCC(=O)N[C@H](C(=O)NCC(=O)N[C@@H](C)C(=O)N[C@H](C(=O)N[C@@H](CCCNC(=N)N)C(=O)N[C@@H](CCC(N)=O)C(=O)NCC(=O)N[C@@H](C)C(=O)N[C@@H](CC(N)=O)C(=O)N[C@@H](CCSC)C(=O)N[C@@H](CCCCN)C(=O)NCC(=O)N[C@@H](C)C(=O)N[C@H](C(N)=O)[C@@H](C)CC)[C@@H](C)CC)[C@@H](C)O
MC4 receptor (MC4R)
  EC50, activating phase (adenylate cyclase): ~0.15 µM
  IC50, inhibitory phase (adenylate cyclase): ~10 µM
  adenylate cyclase activity relative to alpha-MSH: 40%

B2: P1pal-13 (Pal-AVANRSKKSRALF) (peptide)
peptide: Palmitoyl-AVANRSKKSRALF-NH2
SMILES: CCCCCCCCCCCCCCCC(=O)N[C@@H](C)C(=O)N[C@H](C(=O)N[C@@H](C)C(=O)N[C@@H](CC(N)=O)C(=O)N[C@@H](CCCNC(=N)N)C(=O)N[C@@H](CO)C(=O)N[C@@H](CCCCN)C(=O)N[C@@H](CCCCN)C(=O)N[C@@H](CO)C(=O)N[C@@H](CCCNC(=N)N)C(=O)N[C@@H](C)C(=O)N[C@@H](CC(C)C)C(=O)N[C@@H](Cc1ccccc1)C(N)=O)C(C)C
Human PAR1
  Agonist EC50 (activating phase, InsP formation): 0.7 µM
  Agonist IC50 (inhibitory phase, InsP formation): 32 µM

B3: S2pal-23F (Pal-KVRSSGIRVGSSKRKKSEKKVTF) (peptide)
peptide: Palmitoyl-KVRSSGIRVGSSKRKKSEKKVTF-NH2
SMILES: CCCCCCCCCCCCCCCC(=O)N[C@@H](CCCCN)C(=O)N[C@H](C(=O)N[C@@H](CCCNC(=N)N)C(=O)N[C@@H](CO)C(=O)N[C@@H](CO)C(=O)NCC(=O)N[C@H](C(=O)N[C@@H](CCCNC(=N)N)C(=O)N[C@H](C(=O)NCC(=O)N[C@@H](CO)C(=O)N[C@@H](CO)C(=O)N[C@@H](CCCCN)C(=O)N[C@@H](CCCNC(=N)N)C(=O)N[C@@H](CCCCN)C(=O)N[C@@H](CCCCN)C(=O)N[C@@H](CO)C(=O)N[C@@H](CCC(=O)O)C(=O)N[C@@H](CCCCN)C(=O)N[C@@H](CCCCN)C(=O)N[C@H](C(=O)N[C@H](C(=O)N[C@@H](Cc1ccccc1)C(N)=O)[C@@H](C)O)C(C)C)C(C)C)[C@@H](C)CC)C(C)C
[1]
  Agonist EC50 (activating phase, InsP formation): 0.1 µM
  Agonist Efficacy (% of full response to extracellular agonist): 15%
  Agonist IC50 (inhibitory phase, InsP formation): 0.5 µM
  Antagonist IC50 (InsP formation, against 1 µM …): 3 µM

B4: S2pal-23 (Pal-KVKSSGIRVGSSKRKKSEKKVTK) (peptide)
peptide: Palmitoyl-KVKSSGIRVGSSKRKKSEKKVTK-NH2
SMILES: CCCCCCCCCCCCCCCC(=O)N[C@@H](CCCCN)C(=O)N[C@H](C(=O)N[C@@H](CCCCN)C(=O)N[C@@H](CO)C(=O)N[C@@H](CO)C(=O)NCC(=O)N[C@H](C(=O)N[C@@H](CCCNC(=N)N)C(=O)N[C@H](C(=O)NCC(=O)N[C@@H](CO)C(=O)N[C@@H](CO)C(=O)N[C@@H](CCCCN)C(=O)N[C@@H](CCCNC(=N)N)C(=O)N[C@@H](CCCCN)C(=O)N[C@@H](CCCCN)C(=O)N[C@@H](CO)C(=O)N[C@@H](CCC(=O)O)C(=O)N[C@@H](CCCCN)C(=O)N[C@@H](CCCCN)C(=O)N[C@H](C(=O)N[C@H](C(=O)N[C@@H](CCCCN)C(N)=O)[C@@H](C)O)C(C)C)C(C)C)[C@@H](C)CC)C(C)C
[1]
  Antagonist IC50 (InsP formation, against 1 µM …): 2 µM

## Palmitoyl-KKSRALF-NH2 [P1pal-7 (Pal-KKSRALF)]
Human PAR1
  Antagonist IC50 (InsP formation, against 0.1 nM thrombin): 1.2 µM

B5: P1pal-12 (Pal-RCLSSSAVANRS) (peptide)
peptide: Palmitoyl-RCLSSSAVANRS-NH2
SMILES: CCCCCCCCCCCCCCCC(=O)N[C@@H](CCCNC(=N)N)C(=O)N[C@@H](CS)C(=O)N[C@@H](CC(C)C)C(=O)N[C@@H](CO)C(=O)N[C@@H](CO)C(=O)N[C@@H](CO)C(=O)N[C@@H](C)C(=O)N[C@H](C(=O)N[C@@H](C)C(=O)N[C@@H](CC(N)=O)C(=O)N[C@@H](CCCNC(=N)N)C(=O)N[C@@H](CO)C(N)=O)C(C)C
Human PAR1
  Antagonist IC50 (InsP formation, against 0.1 nM thrombin): 5 µM

B6: Apal-19F (Pal-RIRSNSSAANLMAKKRVIEF) (peptide)
peptide: Palmitoyl-RIRSNSSAANLMAKKRVIEF-NH2
SMILES: CCCCCCCCCCCCCCCC(=O)N[C@@H](CCCNC(=N)N)C(=O)N[C@H](C(=O)N[C@@H](CCCNC(=N)N)C(=O)N[C@@H](CO)C(=O)N[C@@H](CC(N)=O)C(=O)N[C@@H](CO)C(=O)N[C@@H](CO)C(=O)N[C@@H](C)C(=O)N[C@@H](C)C(=O)N[C@@H](CC(N)=O)C(=O)N[C@@H](CC(C)C)C(=O)N[C@@H](CCSC)C(=O)N[C@@H](C)C(=O)N[C@@H](CCCCN)C(=O)N[C@@H](CCCCN)C(=O)N[C@@H](CCCNC(=N)N)C(=O)N[C@H](C(=O)N[C@H](C(=O)N[C@@H](CCC(=O)O)C(=O)N[C@@H](Cc1ccccc1)C(N)=O)[C@@H](C)CC)C(C)C)[C@@H](C)CC
[2]
  Agonist EC50 (activating phase, InsP formation): 0.2 µM
  Agonist Efficacy (% of full response to 300 nM CCK-8): < 10%
  Agonist IC50 (inhibitory phase, InsP formation): 2 µM

B7: Bpal-18 (Pal-SGSRPTQAKLLAKKRVVR) (peptide)
peptide: Palmitoyl-SGSRPTQAKLLAKKRVVR-NH2
SMILES: CCCCCCCCCCCCCCCC(=O)N[C@@H](CO)C(=O)NCC(=O)N[C@@H](CO)C(=O)N[C@@H](CCCNC(=N)N)C(=O)N1CCC[C@H]1C(=O)N[C@H](C(=O)N[C@@H](CCC(N)=O)C(=O)N[C@@H](C)C(=O)N[C@@H](CCCCN)C(=O)N[C@@H](CC(C)C)C(=O)N[C@@H](CC(C)C)C(=O)N[C@@H](C)C(=O)N[C@@H](CCCCN)C(=O)N[C@@H](CCCCN)C(=O)N[C@@H](CCCNC(=N)N)C(=O)N[C@H](C(=O)N[C@H](C(=O)N[C@@H](CCCNC(=N)N)C(N)=O)C(C)C)C(C)C)[C@@H](C)O
[3]
  Agonist EC50 (activating phase, InsP formation): 1.5 µM
  Agonist Efficacy (% of full response to 300 nM CCK-8): 12%
  Agonist IC50 (inhibitory phase, InsP formation): 10 µM

B8: P1pal-19E (Pal-RCESSSAEANRSKKERELF) (peptide)
peptide: Palmitoyl-RCESSSAEANRSKKERELF-NH2
SMILES: CCCCCCCCCCCCCCCC(=O)N[C@@H](CCCNC(=N)N)C(=O)N[C@@H](CS)C(=O)N[C@@H](CCC(=O)O)C(=O)N[C@@H](CO)C(=O)N[C@@H](CO)C(=O)N[C@@H](CO)C(=O)N[C@@H](C)C(=O)N[C@@H](CCC(=O)O)C(=O)N[C@@H](C)C(=O)N[C@@H](CC(N)=O)C(=O)N[C@@H](CCCNC(=N)N)C(=O)N[C@@H](CO)C(=O)N[C@@H](CCCCN)C(=O)N[C@@H](CCCCN)C(=O)N[C@@H](CCC(=O)O)C(=O)N[C@@H](CCCNC(=N)N)C(=O)N[C@@H](CCC(=O)O)C(=O)N[C@@H](CC(C)C)C(=O)N[C@@H](Cc1ccccc1)C(N)=O
Human PAR1
  Agonist EC50 (activating phase, InsP formation): 2.5 µM
  Agonist Efficacy (% of full response to extracellular agonist): 11%
  Agonist IC50 (inhibitory phase, InsP formation): 80 µM
  Antagonist IC50 (InsP formation, against 0.1 nM thrombin): > 50 µM
